B1: CPEB3 Ribozyme (parent)
chain: GGGGGCCACAGCAGAAGCGUUCACGUCGCGGCCCCUGUCAGAUUCUGGUGAAUCUGCGAAUUCUGCUGU

Variants of: B1
Test: self-cleavage, relative activity (ratio to wild type); higher = more cleavage; co-transcriptional
For GGGGGCCACCGCAGAAGCGUUCACGUCGCGGCCCCUGUCAGAUUCUGGUGAAUCUGCGAAUACUGCUGU [A10C U62A], the self-cleavage was 0.926.
With GGGGGCCACGGCGGAAGCGUUCACGUCGCGGCCCCUGUCAGAUUCUGGUGAAUCUGCGAAUUCUGCUGU [A10G A13G] the self-cleavage was 0.233.
With GGGGGCCACGGCUGAAGCGUUCACGUCGCGGCCCCUGUCAGAUUCUGGUGAAUCUGCGAAUUCUGCUGU [A10G A13U] the self-cleavage was 0.13.
With GGGGGCCACCGCAGAAGCGUUCACGUCGCGGCCCCUGUCAGAUUCUGGUGAAUCGGCGAAUUCUGCUGU [A10C U55G] the self-cleavage was 0.799.
Work on GGGGGCCACCGCAGAAGCGUUCACGUCGCGGCCCCUGUCAGAUUCUGGUGAAGCUGCGAAUUCUGCUGU [A10C U53G] yielded a self-cleavage of 0.927.
In the case of GGGGGCCACGGAAGAAGCGUUCACGUCGCGGCCCCUGUCAGAUUCUGGUGAAUCUGCGAAUUCUGCUGU [A10G C12A], the self-cleavage is reported as 0.356.
With GGGGGCCACCGCAGAAGCGUUCACGUCGCGGCCCCUGUCAGACUCUGGUGAAUCUGCGAAUUCUGCUGU [A10C U43C] the self-cleavage was 0.965.
GGGGGCCACCGCAGAAGCGUUCACGUCGCGGCCCCUGUCAGAGUCUGGUGAAUCUGCGAAUUCUGCUGU [A10C U43G] gave a self-cleavage of 0.808.
Variant GGGGGCCACCGCAGAAGCGUUCACGUCGCGGCCCCUGUCAGAAUCUGGUGAAUCUGCGAAUUCUGCUGU [A10C U43A] has a self-cleavage of 0.892.
Variant GGGGGCCACCGCAGAAGCGUUCACGUCGCGGCCCCUGUCACAUUCUGGUGAAUCUGCGAAUUCUGCUGU [A10C G41C] has a self-cleavage of 0.798.
GGGGGCCACCGCAGAAGCGUUCACGUCGCGGCCCCUGUCAUAUUCUGGUGAAUCUGCGAAUUCUGCUGU [A10C G41U] showed a self-cleavage of 0.826.
GGGGGCCACCGCAGAAGCGUUCACGUCGCGGCCCCUGUCAGAUGCUGGUGAAUCUGCGAAUUCUGCUGU [A10C U44G] showed a self-cleavage of 1.02.
For GGGGGCCACGGCAGAAGCGUUCCCGUCGCGGCCCCUGUCAGAUUCUGGUGAAUCUGCGAAUUCUGCUGU [A10G A23C], the self-cleavage was 0.939.
For GGGGGCCACGGCAGAAGCGUUCACGUCGCGGCCCCUGUCAGAUUCUGGUGAAUCUGCGAUUUCUGCUGU [A10G A60U], the self-cleavage was 0.221.
Work on GGGGGCCACGGCAGAAGCGUUCACGUCGCGGCCCCUGUCAGAUUCUGGUGAAUCUGCGACUUCUGCUGU [A10G A60C] yielded a self-cleavage of 0.176.
Work on GGGGGCCACGGCAGAAGCGUUCACGUCGCGGCCCCUGUCAGCUUCUGGUGAAUCUGCGAAUUCUGCUGU [A10G A42C] yielded a self-cleavage of 0.668.
GGGGGCCACCGCAGAAGCGUUCACGUCGCGGCCCCUGUCAGAUUCUGGUGAAUCUACGAAUUCUGCUGU [A10C G56A] gave a self-cleavage of 0.989.
Variant GGGGGCCACCGCAGAAGCGUUCACGUCGCGGCCCCUGUCAGAUUCUGGUGAAUCUUCGAAUUCUGCUGU [A10C G56U] has a self-cleavage of 0.936.
In the case of GGGGGCCACGGCAGAAGCGUUCACGUCGCGGCCCCUGUCUGAUUCUGGUGAAUCUGCGAAUUCUGCUGU [A10G A40U], the self-cleavage is reported as 0.301.
With GGGGGCCACCGCAGAAGCGUUCACGUCGCGGCCCCCGUCAGAUUCUGGUGAAUCUGCGAAUUCUGCUGU [A10C U36C] the self-cleavage was 0.966.
With GGGGGCCACCGCAGAAGCGUUCACGUCGCGGCCCCAGUCAGAUUCUGGUGAAUCUGCGAAUUCUGCUGU [A10C U36A] the self-cleavage was 0.226.
GGGGGCCACCGCAGAAGCGUUCACGUCGCGGCCCCGGUCAGAUUCUGGUGAAUCUGCGAAUUCUGCUGU [A10C U36G] gave a self-cleavage of 0.246.
GGGGGCCACCGCAGAAGCGUUCACGUCGCGGCCCCUGUCAGAUUCUGGUGAAUCUGCGAAUUCAGCUGU [A10C U64A] gave a self-cleavage of 0.779.
GGGGGCCACCGCAGAAGCGUUCACGUCGCGGCCCCUGUCAGAUUCUGGUGAAUCUGCGAAUUCCGCUGU [A10C U64C] showed a self-cleavage of 0.769.
GGGGGCCACGGCAGAAGCGUUCACGUCGCGGCCCCUGUCAGAUUCUGGUGAGUCUGCGAAUUCUGCUGU [A10G A52G] showed a self-cleavage of 1.01.
GGGGGCCACCGCAGAAGCGUUCACGUCGCGGCCCCUGUCAGAUUCUGGUGAAUCUGCAAAUUCUGCUGU [A10C G58A] gave a self-cleavage of 0.961.
In the case of GGGGGCCACCGCAGAAGCGUUCACGUCGCGGCCCCUGGCAGAUUCUGGUGAAUCUGCGAAUUCUGCUGU [A10C U38G], the self-cleavage is reported as 0.248.
In the case of GGGGGCCACCGCAGAAGCGUUCACGUCGCGGCCCCUGACAGAUUCUGGUGAAUCUGCGAAUUCUGCUGU [A10C U38A], the self-cleavage is reported as 0.869.
GGGGGCCACCGCAGAAGCGUCCACGUCGCGGCCCCUGUCAGAUUCUGGUGAAUCUGCGAAUUCUGCUGU [A10C U21C] showed a self-cleavage of 0.905.
In the case of GGGGGCCACCGCAGAAGCGUGCACGUCGCGGCCCCUGUCAGAUUCUGGUGAAUCUGCGAAUUCUGCUGU [A10C U21G], the self-cleavage is reported as 0.535.
GGGGGCCACCGCAGAAGCGUUCACGUCGCGGCCCCUGUCAGAUUCUGGGGAAUCUGCGAAUUCUGCUGU [A10C U49G] gave a self-cleavage of 1.04.
Work on GGGGGCCACGGCAGAAGCGUUCACGUCGCGGCCCCUGUCAGAUUCUGGUGAAUCUGCGGAUUCUGCUGU [A10G A59G] yielded a self-cleavage of 0.925.
GGGGGCCACCGCAGAAGCGUUCACGUCGCGGCCCCUGUCAGAUUCUGCUGAAUCUGCGAAUUCUGCUGU [A10C G48C] showed a self-cleavage of 0.992.
With GGGGGCCACCGCAGAAGCGUUCACGUCGCGGCCCCUGUCAGAUUCUGUUGAAUCUGCGAAUUCUGCUGU [A10C G48U] the self-cleavage was 1.02.
Variant GGGGGCCACCGCAGAAGCGUUCACGUCGCGGCCCCUGUCAGAUUCUGGUGAAUCUGCGAAUUCUGCAGU [A10C U67A] has a self-cleavage of 1.02.
In the case of GGGGGCCACCGCAGAAGCGUUCACGUCGCGGCCCCUGUCAGAUUCUGGUCAAUCUGCGAAUUCUGCUGU [A10C G50C], the self-cleavage is reported as 0.996.
GGGGGCCACCGCAGAAGCGUUCACGUCGCGGCCCCUGUCAGAUUCUGGUUAAUCUGCGAAUUCUGCUGU [A10C G50U] gave a self-cleavage of 1.
In the case of GGGGGCCACCGCAGAAGCGUUCACGUCGCGGCCCCUGUCAGAUUCUCGUGAAUCUGCGAAUUCUGCUGU [A10C G47C], the self-cleavage is reported as 1.
For GGGGGCCACCGCAGAAGCGUUCACGUCGCGGCCCCUGUCAGAUUCCGGUGAAUCUGCGAAUUCUGCUGU [A10C U46C], the self-cleavage was 0.98.

Source: the RNAGym collection of RNA variant scans (doi:10.7554/elife.80360)
